{"source": "paper PMC2872554", "about": "(Nature structural & molecular biology, 2010)", "molecules": {"B1": {"name": "mouse N-cadherin EC1-2 fragment, wild type (domain or fragment)", "chain": "DWVIPPINLPENSRGPFPQELVRIRSDRDKNLSLRYSVTGPGADQPPTGIFIINPISGQLSVTKPLDRELIARFHLRAHAVDINGNQVENPIDIVINVIDMNDNRPEFLHQVWNGSVPEGSKPGTYVMTVTAIDADDPNALNGMLRYRILSQAPSTPSPNMFTINNETGDIITVAAGLDREKVQQYTLIIQATDMEGNPTYGLSNTATAVITVTD"}}, "key": {"[1]": {"biological_target": "mouse E-cadherin EC1-2 K14E (mouse)", "experiment": "AUC"}, "[2]": {"biological_target": "mouse E-cadherin EC1-2 K14S (mouse)", "experiment": "AUC"}, "[3]": {"biological_target": "mouse E-cadherin EC1-2 Y142R (mouse)", "experiment": "AUC"}, "[4]": {"biological_target": "mouse cadherin-6 EC1-2 fragment, wild type (mouse)", "experiment": "AUC"}, "[5]": {"biological_target": "mouse E-cadherin EC1-2 fragment, wild type (mouse)", "experiment": "AUC"}, "[6]": {"biological_target": "mouse cadherin-6 EC1-2 W4A (mouse)", "experiment": "AUC"}, "[7]": {"biological_target": "mouse E-cadherin EC1-2 AA extension mutant (mouse)", "experiment": "AUC"}, "[8]": {"biological_target": "mouse E-cadherin EC1-2 W2A (mouse)", "experiment": "AUC"}, "[9]": {"biological_target": "mouse E-cadherin EC1-2 E89A (mouse)", "experiment": "AUC"}, "[10]": {"biological_target": "mouse cadherin-6 EC1-2 M188D (mouse)", "experiment": "AUC"}, "[11]": {"biological_target": "C-terminally biotinylated mouse cadherin-6 EC1-2 M188D (mouse)", "experiment": "SPR"}, "crystal structure": {"biological_target": "the molecule itself", "experiment": "crystal structure"}}, "data": [{"molecule": "mouse E-cadherin EC1-2 K14E (domain or fragment)", "values": [{"measurement": "Kd", "setting": "[1]", "value": 117, "unit": "µM"}]}, {"molecule": "mouse E-cadherin EC1-2 K14S (domain or fragment)", "values": [{"measurement": "Kd", "setting": "[2]", "value": 96, "unit": "µM"}]}, {"molecule": "mouse E-cadherin EC1-2 Y142R (domain or fragment)", "values": [{"measurement": "Kd", "setting": "[3]", "value": 77.4, "unit": "µM"}]}, {"molecule": "mouse cadherin-6 EC1-2 fragment, wild type (domain or fragment)", "values": [{"measurement": "Kd", "setting": "[4]", "value": 3.1, "unit": "µM"}]}, {"molecule": "mouse E-cadherin EC1-2 fragment, wild type (domain or fragment)", "values": [{"measurement": "Kd", "setting": "[5]", "value": 98.6, "unit": "µM"}]}, {"molecule": "mouse cadherin-6 EC1-2 W4A (domain or fragment)", "values": [{"measurement": "Kd", "setting": "[6]", "value": 321, "unit": "µM"}]}, {"molecule": "mouse E-cadherin EC1-2 AA extension mutant (domain or fragment)", "values": [{"measurement": "Kd", "setting": "[7]", "value": 811, "unit": "µM"}]}, {"molecule": "mouse E-cadherin EC1-2 W2A (domain or fragment)", "values": [{"measurement": "Kd", "setting": "[8]", "value": 916, "unit": "µM"}]}, {"molecule": "mouse E-cadherin EC1-2 E89A (domain or fragment)", "values": [{"measurement": "Kd", "setting": "[9]", "value": 293, "unit": "µM"}]}, {"molecule": "mouse cadherin-6 EC1-2 M188D (domain or fragment)", "values": [{"measurement": "Kd", "setting": "[10]", "value": 12.6, "unit": "µM"}, {"measurement": "binding response", "setting": "[11]", "value": "< 10", "unit": "RU"}]}, {"molecule": "B1", "values": [{"measurement": "binding result", "setting": "crystal structure", "value": "binds"}]}]}
